Measured values taken from publication PMC8016135, “Observation of arenavirus nucleoprotein heptamer assembly” (FEBS Open Bio, 2021).

Target: the molecule itself
Test: negative stain transmission electron microscopy

B1: Mopeia virus nucleoprotein (natural protein, UniProt P19239 1-570, looked up)
chain: MSNSKEVKSFLWTQSLRRELSGYCSNIKIQVIKDAQALLHGLDFSEVANVQRLMRKEKRDDSDLKRLRDLNQAVNNLVELKSVQQKNVLRVGTLTSDDLLVLAADLDRLKAKVIRGERPLAAGVYMGNLTAQQLEQRRVLLQMVGMGGGFRAGNTLGDGIVRVWDVRNPELLNNQFGTMPSLTIACMCKQGQADLNDVIQSLSDLGLVYTAKYPNMSDLDKLSQTHPILGIIEPKKSAINISGYNFSLSAAVKAGACLIDGGNMLETIKVTKSNLEGILKAALKVKRSLGMFVSDTPGERNPYENLLYKLCLSGEGWPYIASRTSIVGRAWDNTTVDLSGDVQQNAKPDKGNSNRLAQAQGMPAGLTYSQTMELKDSMLQLDPNAKTWIDIEGRPEDPVEIAIYQPNNGQYIHFYREPTDIKQFKQDSKHSHGIDIQDLFSVQPGLTSAVIESLPKNMVLSCQGADDIRKLLDSQNRRDIKLIDVSMQKDDARKFEDKIWDEYKHLCRMHTGIVTQKKKRGGKEEVTPHCALLDCLMFEAAVIGSPQIPTPRPVLSRDLVFRTGPPRVVL
notes: Nucleoprotein (NP, ~63 kDa) of Mopeia virus (MOPV), full length; also called MOPV-NP; MOPV NP; not shown: thioredoxin, N-terminal, cleaved; His6, N-terminal, cleaved
For B1, the “stoichiometry N” value was 7.
